Data as given in patent publication US20170056488A1.

Target: HLA-A*02 (human)
Assay: UV ligand exchange, anti-b2m ELISA; exchange yield grade

VLLRVLIL
peptide exchange yield: 20 to 49%
